B1: Myosin light chain 1 (Saccharomyces cerevisiae), P53141 (parent)
chain: MSATRANKDIFTLFDKKGQGAIAKDSLGDYLRAIGYNPTNQLVQDIINADSSLRDASSLTLDQITGLIEVNEKELDATTKAKTEDFVKAFQVFDKESTGKVSVGDLRYMLTGLGEKLTDAEVDELLKGVEVDSNGEIDYKKFIEDVLRQ
B2: Myosin light chain 1 (Saccharomyces cerevisiae), P53141 (parent)
chain: B1 chain
partner: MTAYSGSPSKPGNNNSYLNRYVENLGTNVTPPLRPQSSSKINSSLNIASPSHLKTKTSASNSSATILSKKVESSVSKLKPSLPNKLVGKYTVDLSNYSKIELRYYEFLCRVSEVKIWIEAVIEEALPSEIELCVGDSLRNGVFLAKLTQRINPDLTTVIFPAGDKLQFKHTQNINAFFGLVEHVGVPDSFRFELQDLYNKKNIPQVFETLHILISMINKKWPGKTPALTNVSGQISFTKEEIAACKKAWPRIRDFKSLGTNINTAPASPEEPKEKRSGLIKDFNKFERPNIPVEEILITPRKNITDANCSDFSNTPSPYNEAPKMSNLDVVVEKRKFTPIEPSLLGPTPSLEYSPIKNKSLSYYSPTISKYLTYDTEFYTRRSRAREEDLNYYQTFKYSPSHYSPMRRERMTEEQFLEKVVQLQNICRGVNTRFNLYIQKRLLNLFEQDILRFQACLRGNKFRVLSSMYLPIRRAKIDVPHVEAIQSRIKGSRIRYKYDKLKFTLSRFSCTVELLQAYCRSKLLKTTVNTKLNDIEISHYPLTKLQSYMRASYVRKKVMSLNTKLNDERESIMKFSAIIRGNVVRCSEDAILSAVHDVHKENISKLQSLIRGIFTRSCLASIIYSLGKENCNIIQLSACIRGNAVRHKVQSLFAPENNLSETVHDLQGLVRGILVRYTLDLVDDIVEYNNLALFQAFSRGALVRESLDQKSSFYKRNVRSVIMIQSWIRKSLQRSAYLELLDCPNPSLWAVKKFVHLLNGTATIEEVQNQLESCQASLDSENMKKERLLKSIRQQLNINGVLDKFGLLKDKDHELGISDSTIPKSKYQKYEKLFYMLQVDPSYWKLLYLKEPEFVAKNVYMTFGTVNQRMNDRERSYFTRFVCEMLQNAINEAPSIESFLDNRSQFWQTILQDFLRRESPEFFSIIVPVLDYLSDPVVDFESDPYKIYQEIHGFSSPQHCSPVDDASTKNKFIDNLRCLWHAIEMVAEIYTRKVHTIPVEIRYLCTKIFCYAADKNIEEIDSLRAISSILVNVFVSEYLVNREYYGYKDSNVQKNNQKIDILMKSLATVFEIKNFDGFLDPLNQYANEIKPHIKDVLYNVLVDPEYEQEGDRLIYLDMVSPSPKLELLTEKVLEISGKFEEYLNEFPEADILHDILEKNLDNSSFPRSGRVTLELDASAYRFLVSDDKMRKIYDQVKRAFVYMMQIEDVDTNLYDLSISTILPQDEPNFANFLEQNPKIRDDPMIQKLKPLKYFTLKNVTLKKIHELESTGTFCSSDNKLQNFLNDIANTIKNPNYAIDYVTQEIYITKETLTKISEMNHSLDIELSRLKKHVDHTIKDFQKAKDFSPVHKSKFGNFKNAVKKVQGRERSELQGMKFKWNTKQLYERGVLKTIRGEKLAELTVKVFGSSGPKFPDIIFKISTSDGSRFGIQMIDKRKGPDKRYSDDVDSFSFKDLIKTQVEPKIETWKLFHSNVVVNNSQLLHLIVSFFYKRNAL
B3: Myosin-1 (Saccharomyces cerevisiae), P08964 (parent)
chain: MTGGQSCSSNMIVWIPDEKEVFVKGELMSTDINKNKFTGQEEQIGIVHPLDSTEVSNLVQVRISDVFPVNPSTFDKVENMSELTHLNEPSVLYNLEKRYDCDLIYTYSGLFLVAINPYHNLNLYSEDHINLYHNKHNRLSKSRLDENSHEKLPPHIFAIAEEAYENLLSEGKDQSILVTGESGAGKTENTKKILQYLASITSGSPSNIAPVSGSSIVESFEMKILQSNPILESFGNAQTVRNNNSSRFGKFIKIEFNEHGMINGAHIEWYLLEKSRIVHQNSKERNYHIFYQLLSGLDDSELKNLRLKSRNVKDYKILSNSNQDIIPGINDVENFKELLSALNIIGFSKDQIRWIFQVVAIILLIGNIEFVSDRAEQASFKNDVSAICSNLGVDEKDFQTAILRPRSKAGKEWVSQSKNSQQAKFILNALSRNLYERLFGYIVDMINKNLDHGSATLNYIGLLDIAGFEIFENNSFEQLCINYTNEKLQQFFNNHMFVLEQSEYLKENIQWDYIDYGKDLQLTIDLIESKGPPTGVLPLLDEEAVLPKSTDESFYSKLISTWDQNSSKFKRSRLKNGFILKHYAGDVEYTVEGWLSKNKDPLNDNLLSLLSSSQNDIISKLFQPEGEKSSSAGVEANISNQEVKKSARTSTFKTTSSRHREQQITLLNQLASTHPHFVRCIIPNNVKKVKTFNRRLILDQLRCNGVLEGIRLAREGYPNRIAFQEFFQRYRILYPENSTTTTFSSKLKASTKQNCEFLLTSLQLDTKVYKIGNTKLFFKAGVLADLEKQKDVKLNNIMIKLTATIRGYTVRKEITYHLQKLKKTRVIGNTFRLYNRLVKEDPWFNLFIRIKPLLTSSNDMTRTKKFNEQINKLKNDLQEMESKKKFLEEKNQKTVNELENTQDLLNQEKENLRKNESLLNRVKTSSETLQKQFDDLVSEKDEISREKLEVAQNLEEAHQKIQGLQETIREREATLEKLHSKNNELIKQISDLNCDISKEQSSQSLIKESKLKLENEIKRLKDVINSKEEEIKSFNDKLSSSEEDLDIKLVTLEKNCNIAMSRLQSLVTENSDLRSKNENFKKEKAALNNQLKNKESELLKMKEKIDNHKKELATFSKQRDDAVSEHGKITAELKETRIQLTEYKSNYQKIKEEYSNFQRETKEQEQKKRNSLVESLNDSKIKELEARLSQEISLNQYLNKRISGNSVETNISSTRRSTSYSDDPLDKEDIIKKYYDLQLAFTEITRNLENEIEEKKNLISRLRFTETRLASSSFEDQKIKAQMKKLKKLIQDMDPSIPLDSILNEPLDNCPDKESDINKLMLEVDYLKRQLDIETRAHYDAENAISALHSKFRKIQGESSLSSSDIYKLKFEASEERVKSLEDKLKTMPLRDRTNLPVGDIIKNRDSISKYEEEIRYYKLENYKLQEILNESNGKLSQLTLDLRQSKSKEALLSEQLDRLQKDLESTERQKELLSSTIKQQKQQFENCMDDLQGNELRLREHIHALKQAEEDVKNMASIIEKLKTQNKQKEKLIWEREMERNDSDMQLQETLLELKRVQDVKKILSDDLAHLKERLSAVEDRSQYTDEINRLKEELNCSLKAETNLKKEFATLKYKLETSTNDSEAKISDLLKQLDHYTKVVEMLNNEKDAISLAEKELYQKYEALNTECESLKGKIVSLTKIKQELESDLNQKTDALQISNAALSSSTQKNKEITEKIKYLEETLQLQMEQNSRNGELVKTLQASCNGYKDKFDDEKQKNIDLYEENQTLQKLNTDLQLQLKNLHERLSDTTEKNAWLSKIHELENMVSLETDLKYEEMKKNKSLERAVEELQTKNSQQTDVIELANKNRSEFEEATLKYEAQISDLEKYISQQELEMKKSIRDNSSYRDKVQEMAQEIEFWKSRYESTMIGSKNIDSNNAQSKIFS
partner: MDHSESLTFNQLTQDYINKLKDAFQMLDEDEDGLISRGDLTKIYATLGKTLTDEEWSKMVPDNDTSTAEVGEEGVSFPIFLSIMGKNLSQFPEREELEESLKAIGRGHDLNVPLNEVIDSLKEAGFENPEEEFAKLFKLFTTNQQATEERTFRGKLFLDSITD

Variants of: B1
Settings: with myo2_yeast MYO2, P19524
myo2_yeast MYO2, P19524, sequence (P19524 whole entry): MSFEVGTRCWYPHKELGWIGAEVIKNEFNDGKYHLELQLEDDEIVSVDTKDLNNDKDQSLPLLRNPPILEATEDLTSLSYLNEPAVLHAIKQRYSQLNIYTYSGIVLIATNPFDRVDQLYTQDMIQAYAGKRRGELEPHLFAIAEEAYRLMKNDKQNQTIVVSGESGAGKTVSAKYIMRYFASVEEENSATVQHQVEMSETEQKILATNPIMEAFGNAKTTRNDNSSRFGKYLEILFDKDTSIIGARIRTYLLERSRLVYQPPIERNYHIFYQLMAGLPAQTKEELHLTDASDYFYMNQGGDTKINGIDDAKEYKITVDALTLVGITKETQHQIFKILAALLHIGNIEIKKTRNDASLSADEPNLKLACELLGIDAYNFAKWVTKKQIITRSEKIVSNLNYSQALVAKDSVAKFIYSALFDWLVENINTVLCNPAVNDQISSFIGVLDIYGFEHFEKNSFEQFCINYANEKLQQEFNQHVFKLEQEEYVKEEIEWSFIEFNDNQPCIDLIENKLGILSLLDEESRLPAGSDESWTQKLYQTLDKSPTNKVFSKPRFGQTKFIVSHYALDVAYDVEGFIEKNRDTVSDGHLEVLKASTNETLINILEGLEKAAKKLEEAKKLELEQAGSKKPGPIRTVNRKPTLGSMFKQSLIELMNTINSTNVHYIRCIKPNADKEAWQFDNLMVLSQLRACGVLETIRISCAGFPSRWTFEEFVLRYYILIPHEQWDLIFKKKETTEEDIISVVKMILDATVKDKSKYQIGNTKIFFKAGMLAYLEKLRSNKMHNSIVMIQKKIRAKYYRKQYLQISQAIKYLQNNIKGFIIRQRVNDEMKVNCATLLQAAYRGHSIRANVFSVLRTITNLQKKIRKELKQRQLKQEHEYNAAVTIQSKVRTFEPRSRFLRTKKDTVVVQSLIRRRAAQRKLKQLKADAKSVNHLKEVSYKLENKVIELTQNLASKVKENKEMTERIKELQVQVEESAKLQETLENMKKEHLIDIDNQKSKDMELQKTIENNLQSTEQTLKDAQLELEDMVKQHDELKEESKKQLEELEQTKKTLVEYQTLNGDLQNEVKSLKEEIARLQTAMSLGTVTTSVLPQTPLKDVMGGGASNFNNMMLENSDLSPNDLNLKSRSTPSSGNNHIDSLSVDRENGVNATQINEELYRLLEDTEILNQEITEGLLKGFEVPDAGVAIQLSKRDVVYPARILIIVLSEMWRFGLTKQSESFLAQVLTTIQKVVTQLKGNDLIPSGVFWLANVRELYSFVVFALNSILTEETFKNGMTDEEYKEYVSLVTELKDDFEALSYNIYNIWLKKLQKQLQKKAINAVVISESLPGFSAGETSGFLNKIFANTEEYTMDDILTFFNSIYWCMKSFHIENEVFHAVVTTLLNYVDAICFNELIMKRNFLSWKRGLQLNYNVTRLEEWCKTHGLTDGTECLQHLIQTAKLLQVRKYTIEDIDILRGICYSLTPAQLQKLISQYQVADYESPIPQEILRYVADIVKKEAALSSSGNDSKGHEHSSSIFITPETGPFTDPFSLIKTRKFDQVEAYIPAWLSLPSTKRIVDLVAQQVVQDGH

effect of a mutation on the interaction | Variant
with no effect | G135E
disrupting interaction strength | G114D

Variants of: B1
Settings: with myo1_yeast MYO1, P08964

effect of a mutation on the interaction | Variant
decreasing interaction strength | G135E
decreasing interaction strength | G114D

Variants of: B2
Settings: with iqg1_yeast IQG1, Q12280

effect of a mutation on the interaction | Variant
with no effect | G135E
disrupting interaction strength | G114D

Variants of: B3
Settings: with mlc2_yeast MLC2, Q06580

effect of a mutation on the interaction | Variant
with no effect | R806A

Reference: IntAct's records for PubMed 15210731
